Data on one molecule can be found in patent US7378098.

In this experiment the target is T1, CXC chemokine receptor 4 (CXCR4) (UniProt P61073 1-352, limits assumed).
T1 construct: whole, on cells; Both are human cell lines; also called CXCR4 receptor; SDF-1 receptor
Put plainly: competition with 4 nM 125I-SDF-1 on CEM cells (FIG. 2C). Here is the method:
The results are expressed as percentages of the maximal specific binding that was determined without competing ligand, and are the mean of three independent experiments.

Where no end group is shown, it is not given here.

T1 sequence (P61073 whole entry): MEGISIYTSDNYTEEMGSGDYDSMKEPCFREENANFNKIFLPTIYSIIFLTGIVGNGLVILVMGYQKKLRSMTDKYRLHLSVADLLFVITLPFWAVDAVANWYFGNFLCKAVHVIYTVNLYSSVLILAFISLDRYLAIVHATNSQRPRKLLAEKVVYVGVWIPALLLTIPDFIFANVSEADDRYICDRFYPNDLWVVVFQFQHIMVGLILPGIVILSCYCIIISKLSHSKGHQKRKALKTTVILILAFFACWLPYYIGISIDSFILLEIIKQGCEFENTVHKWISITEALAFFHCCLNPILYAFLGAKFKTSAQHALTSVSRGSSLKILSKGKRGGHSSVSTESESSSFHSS

B1: SDF-1(1-8)2-lysine bridge dimer (CTCE9904) (peptide)
peptide 1: KPVSLSYRK-NH2
peptide 2: KPVSLSYR
modifications: also: dimer: two KPVSLSYR chains bridged through alpha and epsilon amino groups of one lysinamide, lactam at chain A 9 at chain B 8 to a chain's C-terminus
notes: It is not known whether the bridging lysine is part of either listing entry; also called SDF-1 (1-8)2-lysine dimer
With B1, the binding result is “binds”.
